From patent publication US20180125993A1 (BEIJING COTIMES BIOTECH COMPANY LIMITED, priority 2014, published 2018)

Tests used:
[1] = system: BXPC3; assay: Cytotoxicity on human tumor cell lines (ATPLite Assay Kit); format: cell-based; details: BXPC3, Pancreatic cancer
Experimental: (§1) Eighteen human tumor cell lines were treated with 62.5, 125, 250, 500, or 1000 ng/mL HuCTB006 or different concentrations of chemotherapy drugs, which act as positive controls. […] The culture medium for SK-Hep-1, HepG2, HCT116, SW480, WiDr (1×NEAA), MIA-PaCa-2 (2.5% Horse serum) MDA-MB-231 (1 mM NaPyr, 1×MEM-NEAA, 1×MEM VITAMIN) was DMEM. The culture medium for COLO205, BXPC3 (2 mM glutamin, 10 mM HEPES), Panc2.03 (15FBS, 1 mM NaPyr, 1×MEM-NEAA, […], 10 mM HEPES), H2122, OVCAR3 (1 mM NaPyr, 10 ug/ml human insulin, 10 mM HEPES, 2.5 g/L glucose), Molt-4 (HEPES, 2.5 g/l glocose), Jurkat (HEPES, 2.5 g/l glocose) was RPMI-1640, the culture medium for SK-MES-1 was Eagle's MEM, the culture medium for 2-LMP and DY36T2 was IMEM, and the culture medium for SUM102 (5 ug/ml insulin) was F-12K. The cell viability was determined by ATPLite Assay Kit. If the IC50 value was lower than 62.5 ng/mL, the cells were treated with higher concentration of CTB006 in the second round of experiments to determine IC50 value.

[2] = system: H2122; assay: as above; format: cell-based; details: H2122, Lung cancer
Experimental: as §1

[3] = system: Panc2.03; assay: as above; format: cell-based; details: Panc2.03, Pancreatic cancer
Experimental: as §1

[4] = system: MDA-MB-231; assay: as above; format: cell-based; details: MDA-MB-231, Breast cancer
Experimental: as §1

[5] = system: SK-MES-1; assay: as above; format: cell-based; details: SK-MES-1, Lung cancer
Experimental: as §1

[6] = system: MIA-PaCa-2; assay: as above; format: cell-based; details: MIA-PaCa-2, Pancreatic cancer
Experimental: as §1

[7] = system: SUM102; assay: as above; format: cell-based; details: SUM102, Breast cancer
Experimental: as §1

[8] = system: HCT116; assay: as above; format: cell-based; details: HCT116, Colorectal cancer
Experimental: as §1

[9] = system: SW480; assay: as above; format: cell-based; details: SW480, Colorectal cancer
Experimental: as §1

[10] = system: 2-LMP; assay: as above; format: cell-based; details: Breast cancer
Experimental: as §1

[11] = system: SK-Hep-1; assay: as above; format: cell-based; details: SK-Hep-1, Liver cancer
Experimental: as §1

[12] = system: COLO205; assay: as above; format: cell-based; details: COLO205, Colorectal cancer
Experimental: as §1

[13] = molecular target: T1, OPG-His (recombinant human osteroprotegerin/TNFRSF11B) (Homo sapiens, UniProt O00300); assay: Binding specificity by chemiluminescent enzyme immunoassay (CLEIA); details: antibody 200, 40 and 8 ng/mL; 1 hour, 37° C.
T1 construct: His; purchased Wuxi Pharmatech Co. Ltd
T1 sequence (O00300 22-401): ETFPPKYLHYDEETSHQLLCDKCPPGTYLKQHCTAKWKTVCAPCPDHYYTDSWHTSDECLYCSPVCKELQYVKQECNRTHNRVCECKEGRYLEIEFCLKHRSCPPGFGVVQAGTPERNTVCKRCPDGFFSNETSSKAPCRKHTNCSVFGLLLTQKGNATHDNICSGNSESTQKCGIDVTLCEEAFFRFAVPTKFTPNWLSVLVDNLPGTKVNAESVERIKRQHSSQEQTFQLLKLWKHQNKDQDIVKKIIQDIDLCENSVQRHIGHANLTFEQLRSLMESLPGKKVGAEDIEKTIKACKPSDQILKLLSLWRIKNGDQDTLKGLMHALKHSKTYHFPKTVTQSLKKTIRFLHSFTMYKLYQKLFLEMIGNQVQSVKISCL
Experimental: (§2) The binding specificity of HuCTB006 was evaluated by chemiluminescent enzyme immunoassay (CLEIA).
(§3) HuCTB006 was diluted into 200, 40 and 8 ng/mL and then added to the wells. After 1 hour incubation in 37° C., the plate was washed. The binding of HuCTB006 with immobilized antigens was detected with HRP labeled secondary antibody and a substrate solution.

[14] = molecular target: T2, DR4-His-EC (Homo sapiens, UniProt O00220); assay: as above; details: antibody 200, 40 and 8 ng/mL; 1 hour, 37° C.
T2 construct: His; made in house; host or cells: E. coli
T2 sequence (O00220 24-468): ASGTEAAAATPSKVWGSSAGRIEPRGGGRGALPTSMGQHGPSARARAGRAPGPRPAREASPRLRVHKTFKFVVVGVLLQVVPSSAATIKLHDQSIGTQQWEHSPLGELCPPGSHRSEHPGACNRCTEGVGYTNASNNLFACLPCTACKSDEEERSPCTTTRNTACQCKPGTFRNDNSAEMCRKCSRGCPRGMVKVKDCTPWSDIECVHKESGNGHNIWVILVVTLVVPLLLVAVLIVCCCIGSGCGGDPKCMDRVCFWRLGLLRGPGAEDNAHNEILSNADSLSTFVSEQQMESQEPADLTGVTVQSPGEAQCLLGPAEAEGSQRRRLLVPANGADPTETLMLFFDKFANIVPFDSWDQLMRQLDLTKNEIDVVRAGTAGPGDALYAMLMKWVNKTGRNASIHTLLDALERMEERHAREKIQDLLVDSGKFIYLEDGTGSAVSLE
Experimental: as §2, §3

[15] = system: NUGC3; assay: In vitro cytotoxic sensitivity of CTB006; format: cell-based, human; details: NUGC3, Stomach cancer
[16] = system: ASPC-1; assay: In vitro cytotoxic sensitivity of CTB006; format: cell-based, human; details: ASPC-1, Pancreatic cancer
[17] = system: MDA-MB-468; assay: In vitro cytotoxic sensitivity of CTB006; format: cell-based, human; details: MDA-MB-468, Breast cancer
[18] = system: BT474; assay: In vitro cytotoxic sensitivity of CTB006; format: cell-based, human; details: BT474, Breast cancer
[19] = system: MKN28; assay: In vitro cytotoxic sensitivity of CTB006; format: cell-based, human; details: MKN28, Stomach cancer

For “HuCTB006: Monospecific humanized chimeric monoclonal antibody directed to TRAIL-R2 receptor; heavy chain SEQ ID NO: 14, light chain SEQ ID NO: 12”, the “In vitro cytotoxic sensitivity of CTB006” value [1] was “Responder”, the “In vitro cytotoxic sensitivity of CTB006” value [2] was “Responder” and the “In vitro cytotoxic sensitivity of CTB006” value [3] was “Partial-responder”. For the same substance, the “In vitro cytotoxic sensitivity of CTB006” value [4] was “Responder”, the “In vitro cytotoxic sensitivity of CTB006” value [5] was “Responder” and the “In vitro cytotoxic sensitivity of CTB006” value [6] was “Responder”. The “In vitro cytotoxic sensitivity of CTB006” value [7] was “Partial-responder”, the “In vitro cytotoxic sensitivity of CTB006” value [8] was “Responder” and the “In vitro cytotoxic sensitivity of CTB006” value [9] was “Partial-responder”. The “In vitro cytotoxic sensitivity of CTB006” value [10] was “Responder”, the “In vitro cytotoxic sensitivity of CTB006” value [11] was “Partial-responder” and the “In vitro cytotoxic sensitivity of CTB006” value [12] was “Responder”. The “cross-reaction with coated antigen” value [13] was “no cross-reaction”, the “cross-reaction with coated antigen” value [14] was “no cross-reaction” and the “In vitro cytotoxic sensitivity of CTB006” value [15] was “Partial-responder”. For the same substance, the “In vitro cytotoxic sensitivity of CTB006” value [16] was “Non-responder”, the “In vitro cytotoxic sensitivity of CTB006” value [17] was “Non-responder” and the “In vitro cytotoxic sensitivity of CTB006” value [18] was “Non-responder”. For the same substance, the “In vitro cytotoxic sensitivity of CTB006” value [19] was “Non-responder”.
